Several values for one entry are separate records, joined by “and”; a condition that tells them apart may be missing. Equal entries are not always repeated.
Columns and labels:
[1] = biological target: ErCry4a C412A + C317A mutant (European robin (Erithacus rubecula)); assay: native MS; 200 mM ammonium acetate, pH 8; nanoflow electrospray, Q Exactive, positive ion mode; micromolar protein concentrations; His-tagged proteins; WT sample of Figure 3A shipped with 10 mM BME
[2] = biological target: ErCry4a C317A mutant (European robin (Erithacus rubecula)); assay: as above
ErCry4a = biological target: T1, ErCry4a (Erithacus rubecula, UniProt A0A2I4SZI9); assay: native mass spectrometry of holoprotein; format: binding; settings: co-purified non-covalently bound FAD; 200 mM ammonium acetate, pH 8; monomer and dimer
T1 construct: full-length wild type (CTT residues 498-527), N-terminal 10x His-tag kept for native MS, expressed in E. coli; monomer with minor disulfide-linked dimer
T1 sequence (A0A2I4SZI9 1-527): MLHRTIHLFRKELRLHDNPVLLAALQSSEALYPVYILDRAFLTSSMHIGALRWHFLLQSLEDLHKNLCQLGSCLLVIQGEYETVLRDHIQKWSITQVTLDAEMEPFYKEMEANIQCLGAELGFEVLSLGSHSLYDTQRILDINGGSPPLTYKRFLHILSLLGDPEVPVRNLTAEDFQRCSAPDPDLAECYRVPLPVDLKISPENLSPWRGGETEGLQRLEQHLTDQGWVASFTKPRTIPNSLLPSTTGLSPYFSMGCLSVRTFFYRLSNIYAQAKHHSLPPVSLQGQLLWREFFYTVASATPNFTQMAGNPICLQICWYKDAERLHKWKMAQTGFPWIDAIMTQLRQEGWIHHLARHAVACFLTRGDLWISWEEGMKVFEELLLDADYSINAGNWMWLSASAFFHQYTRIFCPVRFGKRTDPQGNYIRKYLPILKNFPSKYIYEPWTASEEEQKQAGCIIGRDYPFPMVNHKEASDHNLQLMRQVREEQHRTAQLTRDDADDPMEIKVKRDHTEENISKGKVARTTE

[3] = biological target: ErCry4a C412A mutant (European robin (Erithacus rubecula)); assay: native MS; 200 mM ammonium acetate, pH 8; nanoflow electrospray, Q Exactive, positive ion mode; micromolar protein concentrations; His-tagged proteins; WT sample of Figure 3A shipped with 10 mM BME
[4] = biological target: European robin cryptochrome 4a (Erithacus rubecula Cry4a), wild type, with N-terminal 10x His-tag (European robin (Erithacus rubecula)); assay: mass photometry; 44 nM ErCry4a WT in 200 mM ammonium acetate, pH 8.3; sample shipped with 2 mM DTT; ONE-MP instrument
[5] = biological target: European robin cryptochrome 4a (Erithacus rubecula Cry4a), wild type, with N-terminal 10x His-tag (European robin (Erithacus rubecula)); assay: native MS; 200 mM ammonium acetate, pH 8; nanoflow electrospray, Q Exactive, positive ion mode; micromolar protein concentrations; His-tagged proteins; WT sample of Figure 3A shipped with 10 mM BME
[6] = biological target: European robin cryptochrome 4a (Erithacus rubecula Cry4a), wild type, with N-terminal 10x His-tag (European robin (Erithacus rubecula)); assay: as above; remark: listed apart in the source

Compound: ErCry4a C412A + C317A mutant (natural protein)
- stoichiometry N [1]: 2 and 3

Compound: ErCry4a C317A mutant (natural protein)
- stoichiometry N [2]: 2 and 3

Compound: Cc1cc2nc3c(=O)[nH]c(=O)nc-3n(C[C@H](O)[C@H](O)[C@H](O)COP(=O)(O)OP(=O)(O)OC[C@H]3O[C@@H](n4cnc5c(N)ncnc54)[C@H](O)[C@@H]3O)c2cc1C [FAD]
- native mass spectrometry of holoprotein (ErCry4a): the ErCry4a dimers bind FAD and have native MS charge-state distributions

Compound: ErCry4a C412A mutant (natural protein)
- stoichiometry N [3]: 2 and 3

Compound: European robin cryptochrome 4a (Erithacus rubecula Cry4a), wild type, with N-terminal 10x His-tag (natural protein)
- percent of counts in the dimer peak [4]: 11%
- stoichiometry N [4]: 2
- stoichiometry N [5]: 2
- stoichiometry N [6]: 3

Source: paper PMC10364083, “Dimerization of European Robin Cryptochrome 4a” (The Journal of Physical Chemistry. B, 2023)
